Values of other authors as cited in paper PMC8308721, “An Effective and Safe Enkephalin Analog for Antinociception” (Pharmaceutics, 2021).

Target: [3H]DADLE ([D-Ala2, D-Leu5]-enkephalin)
Assay: radioligand

Delta opioid receptor (from UniProt P41143)
Kd: 0.6 nM
